Values of other authors in publication PMC12355045.
pKd: −log10 of the molar value.

Target: hemoglobin αβ dimer (Homo sapiens) (UniProt P69905)

pKd: 6.00
Substance: hemoglobin αβ dimer (from UniProt P69905)
